Reference: patent US20220119541A1 (PHARMAEXPLORER, published 2022)
Residue numbers refer to the chain shown, from its start.

T1: human GITR (full length, on cells) (human, UniProt Q9Y5U5 26-241)
T1 sequence (looked up): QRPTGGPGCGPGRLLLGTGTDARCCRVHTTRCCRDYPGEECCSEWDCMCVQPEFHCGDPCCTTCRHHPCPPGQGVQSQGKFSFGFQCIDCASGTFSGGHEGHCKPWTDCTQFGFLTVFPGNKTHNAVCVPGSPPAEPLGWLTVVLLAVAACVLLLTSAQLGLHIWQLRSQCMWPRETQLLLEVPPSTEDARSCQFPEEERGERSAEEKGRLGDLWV

T2: hGITR-ECD-hFc (human, UniProt Q9Y5U5 26-161)
T2 construct: ECD put first; also called immunogen A; human GITR extracellular domain protein with hFc tag; not shown: human IgG Fc fragment (hFc) of the pCpC vector
T2 chain: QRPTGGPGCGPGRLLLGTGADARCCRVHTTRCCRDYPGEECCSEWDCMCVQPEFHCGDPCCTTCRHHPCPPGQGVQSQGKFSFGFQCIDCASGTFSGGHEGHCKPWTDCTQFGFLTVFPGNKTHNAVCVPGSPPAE

B1: 3503-hab070 (antibody, V domains shown)
VH: QVQLVESGGGVVQPGRSLRLSCAASGFTFSSYGMHWVRQAPGKGLEWVAVIWYETSNKFYVDSVKGRFTISRDNSKNTLYLQMNSLRAEDTAVYYCARYGASSGWYWYFDLWGRGTLVTVSS
VL: DIQLTQSPSFLSASVGDRVTITCRASQGISSFLAWYQQKPGKAPKLLIYAASTLQSGVPSRFSGSGSGTEFTLTISSLQPEDFATYCCQQLNSYPFTFGQGTKLEIK
notes: also called 272G5E1; fully human anti-GITR antibody
B2: 3503-hab076 (antibody, V domains shown)
VH: B1 VH with F59Y, V61A
VL: B1 VL with F32Y
notes: also called 277C12G4; fully human anti-GITR antibody
B3: 3503-hab064 (antibody, V domains shown)
VH: B1 VH with F59Y, V61A, S85N, A101G, S102N
VL: B1 VL with K42T
notes: also called 265G9A11; fully human anti-GITR antibody
B4: 3503-hab019 (antibody, V domains shown)
VH: QVQLVESGGGVVQPGRSLRLSCAASGFTFSSYGMHWVRQAPGKGLEWVAVIWYAGSRKFYADSVEGRFTISRDNSKNTLYLQMSSVRPEDTAVYYCARGGSLDGGFFYYGMDVWGQGTTVTVSS
VL: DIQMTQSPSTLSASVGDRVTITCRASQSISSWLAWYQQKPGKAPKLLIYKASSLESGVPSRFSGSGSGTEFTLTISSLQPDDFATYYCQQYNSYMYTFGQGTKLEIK
notes: also called 96A10H9; fully human anti-GITR antibody
B5: 3503-hab070e1 (antibody, V domains shown)
VH: B1 VH
VL: B1 VL with C87Y
notes: also called 272G5E1; engineered fully human anti-GITR antibody
B6: 3503-hab019e2 (antibody, V domains shown)
VH: B4 VH with S84N, V86L, P88A, D103E
VL: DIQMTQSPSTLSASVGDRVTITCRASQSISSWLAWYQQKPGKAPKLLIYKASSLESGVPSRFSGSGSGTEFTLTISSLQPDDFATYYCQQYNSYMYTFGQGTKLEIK
notes: also called 96A10H9; engineered fully human anti-GITR antibody
B7: 3503-mAb070 (antibody, V domains shown)
VH: B1 VH
VL: B1 VL
notes: Chimeric antibody purified from hybridoma supernatant of Harbour H2L2 mice: human variable regions with rat constant regions; also called 272G5E1; chimeric anti-GITR antibody
B8: 3503-mAb076 (antibody, V domains shown)
VH: B1 VH with F59Y, V61A
VL: B1 VL with F32Y
notes: Chimeric antibody purified from hybridoma supernatant of Harbour H2L2 mice: human variable regions with rat constant regions; also called 277C12G4; chimeric anti-GITR antibody
B9: 3503-mAb064 (antibody, V domains shown)
VH: B1 VH with F59Y, V61A, S85N, A101G, S102N
VL: B1 VL with K42T
notes: Chimeric antibody purified from hybridoma supernatant of Harbour H2L2 mice: human variable regions with rat constant regions; also called 265G9A11; chimeric anti-GITR antibody
B10: 3503-mAb019 (antibody, V domains shown)
VH: B4 VH
VL: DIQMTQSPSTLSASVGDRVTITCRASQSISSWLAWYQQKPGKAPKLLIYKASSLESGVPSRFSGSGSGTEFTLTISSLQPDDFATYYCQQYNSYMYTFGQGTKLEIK
notes: Chimeric antibody purified from hybridoma supernatant of Harbour H2L2 mice: human variable regions with rat constant regions; also called 96A10H9; chimeric anti-GITR antibody

Target: T1, human GITR (full length, on cells)
Assay: cell-based or functional assay

| Activation of NF-κB activity, EC50 (nM), Coupling [nM] | Activation of NF-κB activity, EC50 (nM), Non-coupling [nM] | Binder |
| --- | --- | --- |
| 2.55 | 0.276 | B1 |
| 1.33 | 0.127 | B2 |
| 2.8 | 0.177 | B3 |
| 4.42 | 0.281 | B4 |

Target: T3, cGITR-ECD-hFc (rhesus; human, UniProt F7DDV8 14-149)
Assay: ELISA, cGITR-ECD-hFc coated on plate, HRP anti-human Fab detection

T3 sequence (F7DDV8 entry or part of it): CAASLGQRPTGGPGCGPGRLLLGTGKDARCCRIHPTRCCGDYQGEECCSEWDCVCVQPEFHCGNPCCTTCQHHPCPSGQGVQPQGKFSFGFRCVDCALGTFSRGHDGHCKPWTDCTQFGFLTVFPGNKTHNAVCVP

| EC50 [nM] | Binder |
| --- | --- |
| 0.0529 | B1 |
| 0.0551 | B2 |
| 0.0369 | B3 |
| 0.0717 | B4 |

Target: T1, human GITR (full length, on cells)
Assay: cell-based or functional assay
Remark: another data set of the same source

| Activation of NF-κB activity, EC50 (nM), Coupling [nM] | Activation of NF-κB activity, EC50 (nM), Non-coupling [nM] | Binder |
| --- | --- | --- |
| 5.78 | 0.0959 | B1 |
| 4.08 | 0.0957 | B5 |
| 10.9 | 0.166 | B4 |
| 1.74 | 0.139 | B6 |

Target: T4, monkey GITR (full length, on cells) (monkey)
T4 construct: whole, on cells; also called cGITR
Assay: flow cytometry (FACS) on 293F-cGITR cells, MFI curve fit
Protocol: (§1) The pIRES plasmid with the monkey-derived GITR full-length gene was transfected into the HEK293 cell line to construct a HEK293 stable cell line containing monkey GITR (herein referred to as HEK293-cGITR stable cell line), wherein the database accession number of the monkey GITR nucleotide sequence is XP_005545180.1. The tool antibody Tab9H6v3 was constructed with reference to the patent (US_2015_0064204_A1). […] The medium was aspirated, and the cells were incubated with chimeric anti-GITR antibody or IgG1 isotype control antibody in PBS+2% FBS for 1 hour so that the antibody binds to the GITR protein expressed on the cell surface. Cells were collected and washed, and then incubated with anti-human antibody conjugated with fluorescent dye at 4° C. for 1 hour. Mean fluorescence intensity (MFI) of chimeric anti-GITR antibodies bound to cells expressing hGITR or cGITR was determined by flow cytometry. The EC50 of the fitting curve was calculated by GraphPad Prism software. The antibody to be tested can bind to human or monkey GITR protein on the cell surface. The data in the table is the average fluorescence intensity values of the cell populations measured by MFI.

| EC50 [nM] | Binder |
| --- | --- |
| 0.301 | B1 |
| 0.58 | B2 |
| 0.254 | B3 |
| 0.53 | B4 |

Target: T2, hGITR-ECD-hFc
Assay: ELISA, hGITR-ECD-hFc coated on plate, HRP anti-human Fab detection
Protocol: (§2) HGITR-ECD-hFc protein and cGITR-ECD-hFc protein were diluted to 1 μg/ml with PBS hydrochloric acid buffer (pH 7.2), and 100 μl dilution was added to 96-well ELISA microplate, and incubated at 4° C. overnight. The microplate was washed three times with 300 μl/well wash buffer PBST (PBS+0.05% Tween-20), 300 μl blocking buffer (PBST+1% BSA) was added to each well, and incubated at room temperature for 2 hours. The plate was washed three times, 100 μl, 10 μg/ml anti-GITR antibody was added to each well, and was incubated at 37° C. for 1 hour. The plate was washed three times, 100 μl horseradish peroxidase (HRP) labeled anti-human Fab secondary antibody was added to each well, and was incubated at 37° C. for half an hour. The plate was washed three times, 100 μl tetramethylbenzidine (TMB) was added to each well. After 15 minutes of color development, 50 μl 1N HCl termination solution was added to each well, and the OD450 value was read with a plate reader. The EC50 of the binding curve was calculated by GraphPad Prism software.

| EC50 [nM] | Binder |
| --- | --- |
| 0.0544 | B1 |
| 0.0593 | B2 |
| 0.0443 | B3 |
| 0.0791 | B4 |

Target: T2, hGITR-ECD-hFc
Assay: as above
Remark: another data set of the same source
Protocol: as §2
The binding activity of the engineered fully human anti-GITR antibody to the hGITR-ECD-hFc protein or the cGITR-ECD-hFc protein was detected by an enzyme-linked immunosorbent assay iaccording to the step (1) of Example 5.

| EC50 [nM] | Binder |
| --- | --- |
| 0.078 | B1 |
| 0.074 | B5 |
| 0.11 | B4 |
| 0.089 | B6 |

Target: T1, human GITR (full length, on cells)
Assay: flow cytometry (FACS) on 293F-hGITR cells, MFI curve fit
Protocol: as §1

| EC50 [nM] | Binder |
| --- | --- |
| 0.203 | B1 |
| 0.173 | B2 |
| 0.194 | B3 |
| 0.25 | B4 |

Target: T3, cGITR-ECD-hFc
Assay: ELISA, cGITR-ECD-hFc coated on plate, HRP anti-human Fab detection
Remark: another data set of the same source

| EC50 [nM] | Binder |
| --- | --- |
| 0.063 | B1 |
| 0.062 | B5 |
| 0.115 | B4 |
| 0.096 | B6 |

Target: T1, human GITR (full length, on cells)
Assay: cell-based or functional assay
Remark: another data set of the same source

| Activation of NF-κB activity, EC50 (nM), Coupling (Crosslinking) [nM] | Activation of NF-κB activity, EC50 (nM), Non-coupling (Non-Crosslinking) [nM] | Binder |
| --- | --- | --- |
| > 0.09 | 0.062 | B7 |
| > 0.27 | > 0.09 | B8 |
| 0.101 | > 0.2 | B9 |
| 12.5 |  | B10 |

Target: T4, monkey GITR (full length, on cells)
Assay: flow cytometry (FACS) on 293F-cGITR cells, MFI curve fit
Remark: another data set of the same source
Protocol: as §1

| EC50 [nM] | Binder |
| --- | --- |
| 0.258 | B1 |
| 0.198 | B7 |
| 0.264 | B5 |
| 0.226 | B8 |
| 0.404 | B9 |
| 0.01 | B10 |
| 0.418 | B4 |
| 0.31 | B6 |

Target: T1, human GITR (full length, on cells)
Assay: flow cytometry (FACS) on 293F-hGITR cells, MFI curve fit
Remark: another data set of the same source
Protocol: as §1

| EC50 [nM] | Binder |
| --- | --- |
| 0.141 | B1 |
| 0.358 | B7 |
| 0.169 | B5 |
| 0.152 | B8 |
| 0.385 | B9 |
| 0.07 | B10 |
| 0.222 | B4 |
| 0.155 | B6 |

Target: T2, hGITR-ECD-hFc
Assay: SPR (Biacore), hGITR-ECD-hFc immobilised on CM5 chip, antibody as analyte
Protocol: (§3) The antigen hGITR-ECD-hFc was immobilized on the chip surface in manual mode using the running buffer HBS-EP+(10 mM HEPES, 150 mM NaCl, 3 mM EDTA, 0.05% P20, pH 7.4). First, a fresh mixture of 50 mM NHS and 200 mM EDC was used to activate the flow cell 4 of the tandem S CM5 sensor chip. The antigen was then diluted to 1 μg/ml with 10 mM NaAC (pH 5.0) and was injected into flow cell 4 for approximately 40 seconds. Finally, 1 M ethanolamine was used to block the remaining active coupling sites.
Binding kinetics and affinity of the engineered fully human anti-GITR antibody to the antigen hGITR-ECD-hFc protein were tested by Biacore according to step (5) of Example 5, and the results are shown in Table 17.

| Kd [nM] | koff [s⁻¹] | kon [M⁻¹ s⁻¹] | Binder |
| --- | --- | --- | --- |
| 0.537 | 0.000381 | 710000 | B5 |
| 0.384 | 0.00023 | 600000 | B6 |

Target: T2, hGITR-ECD-hFc
Assay: SPR (Biacore T200), hGITR-ECD-hFc immobilised on CM5 chip, antibody as analyte
Protocol: as §3
Buffer flow was maintained for 600 seconds to determine dissociation. To remove the test antibody from the surface, 10 mM Glycine-HCl (pH 1.5) was injected into flow cells 1 and 4 at a flow rate of 10 μ L/min for 30 seconds. The above steps were repeated for each concentration of continuously diluted antibodies.
The KD value of each antibody was evaluated using Biacore T200 evaluation software 3.0, where flow cell 1 was used as a reference flow cell.

| Kd [nM] | koff [s⁻¹] | kon [M⁻¹ s⁻¹] | Binder |
| --- | --- | --- | --- |
| 0.251 | 0.000185 | 737000 | B1 |
| 1.03 | 0.000684 | 664000 | B2 |
| 0.592 | 0.000315 | 532000 | B3 |
| 0.401 | 0.000205 | 512000 | B4 |
